B1: Type-1 angiotensin II receptor (Homo sapiens), P30556 (parent)
chain: MILNSSTEDGIKRIQDDCPKAGRHNYIFVMIPTLYSIIFVVGIFGNSLVVIVIYFYMKLKTVASVFLLNLALADLCFLLTLPLWAVYTAMEYRWPFGNYLCKIASASVSFNLYASVFLLTCLSIDRYLAIVHPMKSRLRRTMLVAKVTCIIIWLLAGLASLPAIIHRNVFFIENTNITVCAFHYESQNSTLPIGLGLTKNILGFLFPFLIILTSYTLIWKALKKAYEIQKNKPRNDDIFKIIMAIVLFFFFSWIPHQIFTFLDVLIQLGIIRDCRIADIVDTAMPITICIAYFNNCLNPLFYGFLGKKFKRYFLQLLKYIPPKAKSHSNLSTKMSTLSYRPSDNVSSSTKKPAPCFEVE

Variants of: B1
Details: with arrb1_human ARRB1, P49407
Chain of arrb1_human ARRB1, P49407 (P49407 whole entry): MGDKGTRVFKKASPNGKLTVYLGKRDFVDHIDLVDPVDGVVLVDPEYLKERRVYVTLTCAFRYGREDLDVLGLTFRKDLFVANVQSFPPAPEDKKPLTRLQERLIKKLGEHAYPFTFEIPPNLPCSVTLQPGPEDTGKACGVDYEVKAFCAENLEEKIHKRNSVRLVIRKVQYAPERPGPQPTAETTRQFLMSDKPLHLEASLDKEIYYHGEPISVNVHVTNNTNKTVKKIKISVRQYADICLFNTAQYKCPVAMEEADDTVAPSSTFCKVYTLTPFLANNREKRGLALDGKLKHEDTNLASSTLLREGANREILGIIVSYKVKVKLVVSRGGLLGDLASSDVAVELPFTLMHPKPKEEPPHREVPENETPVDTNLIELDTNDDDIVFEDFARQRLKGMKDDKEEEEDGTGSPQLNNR

effect of a mutation on the interaction	Variant
decreasing interaction	N111G

Variants of: B1
Details: with gnaq_human GNAQ

effect of a mutation on the interaction	Variant
increasing interaction	N111G

— IntAct's records for PubMed 17498700
